From PMC3514788 (The Journal of Cell Biology, 2012)

B1: GST-Nup116 fragment from the N terminus to residue 172 (domain or fragment)
chain: MFGVSRGAFPSATTQPFGSTGSTFGGQQQQQQPVANTSAFGLSQQTNTTQAPAFGNFGNQTSNSPFGMSGSTTANGTPFGQSQLTNNNASGSIFGGMGNNTALSAGSASVVPNSTAGTSIKPFTTFEEKDPTTGVINVFQSITCMPEYRNFSFEELRFQDYQAGRKFGTSQN
B2: Drg1 (enzyme)
chain: MAPKSSSSGSKKKSSASSNSADAKASKFKLPAEFITRPHPSKDHGKETCTAYIHPNVLSSLEINPGSFCTVGKIGENGILVIARAGDEEVHPVNVITLSTTIRSVGNLILGDRLELKKAQVQPPYATKVTVGSLQGYNILECMEEKVIQKLLDDSGVIMPGMIFQNLKTKAGDESIDVVITDASDDSLPDVSQLDLNMDDMYGGLDNLFYLSPPFIFRKGSTHITFSKETQANRKYNLPEPLSYAAVGGLDKEIESLKSAIEIPLHQPTLFSSFGVSPPRGILLHGPPGTGKTMLLRVVANTSNAHVLTINGPSIVSKYLGETEAALRDIFNEARKYQPSIIFIDEIDSIAPNRANDDSGEVESRVVATLLTLMDGMGAAGKVVVIAATNRPNSVDPALRRPGRFDQEVEIGIPDVDARFDILTKQFSRMSSDRHVLDSEAIKYIASKTHGYVGADLTALCRESVMKTIQRGLGTDANIDKFSLKVTLKDVESAMVDIRPSAMREIFLEMPKVYWSDIGGQEELKTKMKEMIQLPLEASETFARLGISAPKGVLLYGPPGCSKTLTAKALATESGINFLAVKGPEIFNKYVGESERAIREIFRKARSAAPSIIFFDEIDALSPDRDGSSTSAANHVLTSLLNEIDGVEELKGVVIVAATNRPDEIDAALLRPGRLDRHIYVGPPDVNARLEILKKCTKKFNTEESGVDLHELADRTEGYSGAEVVLLCQEAGLAAIMEDLDVAKVELRHFEKAFKGIARGITPEMLSYYEEFALRSGSSS

What was measured:
[1] = target: GST-Rlp24C (S. cerevisiae) (UniProt Q07915); assay: SPR
Chain of GST-Rlp24C (S. cerevisiae) (Q07915 147-199): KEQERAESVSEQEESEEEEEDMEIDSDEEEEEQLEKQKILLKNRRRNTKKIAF

Drg1 = target: B2; assay: pull-down
[2] = target: the molecule itself

Molecule: Drg1EQ1 (from UniProt P32794 1-780) (enzyme)
- fold RU against the wild-type and EQ2 proteins [1]: 4 fold
- kon2 (two-state reaction) [1]: 0.011 s⁻¹

Molecule: B1
- binding result (Drg1): binds

Molecule: B2
- stoichiometry N [2]: 6
